Measured values: US7193044B1, “Compounds and methods for regulating apoptosis, and methods of making and screening for compounds that regulate apoptosis” (Immunogen, Inc., priority 2000, dated 2007)

Key:
[1] = system: HeLa cells; experiment: Fluorescence-based beta-galactosidase assay of BAD-induced cell death in transfected HeLa cells; design: species or system human; details: SFM vs SFM+EGF, 12 hours
Procedure: FIG. 12(B) is a graphic representation of the results of a β-galactosidase assay. HeLa cells were co-transfected with the β-galactosidase gene and either HA-BAD (“WT”), HA-BAD S155A (“S155A”), HA-BAD S112A/S136A (“S112A/S136A”) or HA-BAD S112A/S136A/S155A (“AAA”). Transfected cells were then cultured in serum-free medium (SFM) or SFM supplemented with EGF (SFM+EGF) for 12 hours. Cell lysates were prepared and BAD-induced cell death was measured by the loss of β-galactosidase activity in a fluorescence-based assay. Fluorescence was measured at 465 nm. Results shown are the average and standard deviation of triplicate transfections (this experiment was repeated two more times with similar results). Expression levels of HA-tagged BAD and BAD mutants in transfected cell lysates were detected by anti-HA western blot analysis: HA-BAD (“WT”), HA-BAD S155A (“A”), HA-BAD S112A/S136A (“AA”), and HA-BAD S112A/S136A/S155A (“AAA”).
FIG. 12(C) is a graphic representation of the results of a β-galactosidase assay. HeLa cells were co-transfected with the β-galactosidase gene and either an empty vector (“CTL”), wild-type BAD (“WT”), the BAD S155A mutant (“S155A”) or the BAD S155D mutant (“S155D”). Cell lysates were prepared and BAD-induced cell death was measured by the loss of β-galactosidase activity in a fluorescence-based assay. Fluorescence was measured at 465 nm. Results shown are the average and standard deviation of triplicate transfections (this experiment was repeated two more times with similar results).
HeLa cells were co-transfected with the β-galactosidase gene and either wild-type BAD, BAD S155A, BAD S112A/S136A or BAD S112A/S136A/S155A. […] Cell lysates were prepared and BAD-induced cell death was measured by the loss of β-galactosidase activity in a fluorescence-based assay. […]
To measure β-gal activity, HeLa cells were plated in 12-well plates at 5×10^4 cells/well one day prior to transfection. […] Beta-gal activity was measured in extracts using a fluorogenic substrate (MUG, BIO-RAD FluorAce™ β-gal Reporter Assay, #170–3150). […]

[2] = molecular target: T1, PKA (catalytic subunit from bovine heart) (Bos taurus, UniProt P00517); experiment: In vitro kinase assay, phosphorylation of BAD and BAD mutants by PKA; format: biochemical; details: for in vitro phosphorylation by PKA: purified GST-tagged polypeptides, gamma-32P-ATP, autoradiography
T1 construct: 11 units PKA (catalytic subunit from bovine heart, Calbiochem); purchased Calbiochem; host or cells: bovine heart
Procedure: The ability of full-length BAD and mutant BAD S155A to bind Bcl-XL was also determined (FIG. 3(c)). Full-length BAD (“WT”) and mutant BAD S155A (“S155A”) were produced by in vitro translation and labeled with ^35S-methionine therein. The labeled proteins were then incubated with PKA (“+”) in the presence of unlabeled ATP or a buffer control (“−”). Following the kinase reactions, aliquots of each sample of the four samples were incubated with either GST or GST-Bcl-XL. The protein complex were captured on glutathione-agarose beads. Proteins bound to the beads (“Bound”) (lower panel) and samples of the reactions collected prior to incubation with the beads (“Total”) (upper panel) were analyzed by SDS-PAGE followed by autoradiography.
The GST-tagged BAD and BAD mutants were then expressed individually in cells and the purified GST-tagged polypeptides incubated with purified PKA, in the presence of ^32P radiolabel. A western blot, probed with anti-BAD antibody, was performed on the incubated GST-tagged BAD and BAD mutants to determine whether PKA could phosphorylate the BAD and/or mutant BAD in vitro. The GST-tagged BAD and BAD mutants phosphorylated by PKA could be detected directly by autoradiography due to the incorporation of ^32P radiolabel when the polypeptides were phosphorylated (FIG. 4, upper panel), whereas the total amount of BAD and mutant BAD present in the in vitro reaction was detected by the anti-BAD antibody probe (FIG. 4, lower panel).
In vitro kinase assays were carried out in 30 μl volumes containing 10 mM HEPES buffer, pH 7.5, 100 mM NaCl, 12 mM MgCl2, 1 mM dithiothreitol, […] γ^32P-ATP ([…], NEN), 11 units PKA (catalytic subunit from bovine heart, Calbiochem), and 1 μg purified GST-BAD. Reactions were incubated for 30 min at 30° C. and terminated by the addition of SDS-PAGE sample buffer. Samples were run on a 4–20% SDS-PAGE gel (Novex), transferred to a nitrocellulose membrane and phosphorylated GST-BAD was visualized by autoradiography. To verify that equal amounts of GST-BAD substrates were used, the nitrocellulose was subjected to western blot analysis with 133 ng/ml anti-BAD antibody (C-20).

B1: BAD S155A: mutant of shorter murine BAD, serine corresponding to Ser155 substituted with alanine; HA- or GST-tagged (protein)
chain: MFQIPEFEPSEQEDASATDRGLGPSLTEDQPGPYLAPGLLGSNIHQQGRAATNSHHGGAGAMETRSRHSSYPAGTEEDEGMEEELSPFRGRSRSAPPNLWAAQRYGRELRRMADEFEGSFKGLPRPKSAGTATQMRQSAGWTRIIQSWWDRNLGKGGSTPSQ
modifications: left off: small tags and cut ends
notes: mutant of shorter murine BAD, serine corresponding to Ser155 substituted with alanine; HA- or GST-tagged
effect of EGF stimulation on pro-apoptotic activity of the BAD mutant [1]: does not eliminate the protective effect of EGF | reduction of PKA catalyzed 32P-ATP incorporation ([2]; compared to the wild-type mammalian BAD substrate): more than 90% | in vitro phosphorylation by PKA [2]: low, but detectable level | in vitro phosphorylation by PKA ([2]; listed as GST-BAD S155A): dramatically reduced the phosphorylation
